Data from PMC8390522, “The phototroph-specific β-hairpin structure of the γ subunit of FoF1-ATP synthase is important for efficient ATP synthesis of cyanobacteria” (The Journal of Biological Chemistry, 2021).

Target: the molecule itself
Assay: SDS-PAGE with immunoblot (oligomer resistant to SDS); purified FoF1 on 16% polyacrylamide gels, immunoblot with anti-c-subunit antibodies; the c subunit runs as a ring above the α subunit

B1: c subunit of FoF1 ATP synthase of Synechocystis sp. PCC 6803 (natural protein, Synechocystis sp. PCC 6803 (endogenous), UniProt P27182 1-81, looked up)
chain: MDSTVAAASVIAAALAVGLGAIGPGIGQGNASGQAVSGIARQPEAEGKIRGTLLLTLAFMESLTIYGLVIALVLLFANPFA
notes: ATP synthase c subunit, Synechocystis sp; Forms the c-ring; also called ssl2615; c-ring; source: endogenous, Synechocystis sp
Question: Does B1 bind?
Answer: binds
